The series relates to MS2 coat protein. As to the kind of experiment: apparent KD of MS2 coat protein; designed switch direction (-1 OFF switch, 1 ON switch): 1; higher = weaker reporter binding. The essentials: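 Designed RNA switches with common flanks were made on Illumina chips by stalled E. coli RNA polymerase. Titration with SNAP-549-labelled MS2 coat protein doubled from 0.7 or 1.5 nM up to 3 µM. Apparent KD is each design's median over clusters after curve-fitting normalised fluorescence.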

Where [1] appears, read: input ligand: microRNA oligo, concentration not stated.
The mark [2] stands for this setting: Eterna round: R95, input ligand: microRNA oligo, concentration not stated.
[3] abbreviates: Eterna round: R95, input ligand: FMN 200 uM.
Where [4] appears, read: Eterna round: R95, input ligand: none.

From the supplement of paper PMC9170038 come the findings set out here.

Regarding “GCUCGGCUGAUGGCCUACAUGAGGAUCACCCAUGUGAGUGGGCAGGAUAUCUAGAUUCAGGAUGUAGAGAAGGGCCUGCCGAGC [SameState NG3 #39] (Eterna round: R96, puzzle: Same State NG 3)”, the “apparent KD of MS2 coat protein” value is 1500 nM (input ligand: FMN 200 uM), 331 nM under setting [1] and 1190 nM (input ligand: none).
Taken in the same sequence, the figures for “GCUCGUAUCACAACCGACAUGAGGAUCACCCAUGUAUGUUGGUAGGAUAUCUAUAUUAAGGAUAUAGAGAAGGGCCGAACGAGC [SameState NG3 #13] (Eterna round: R96, puzzle: Same State NG 3)” were 14.6 nM, 10.4 nM and 18.7 nM.
In the case of “GGAAAACAUGAGGAUCACCCAUGUGAAAACGUGGGAGGAUAUCGAUGGAAACCAUACUGUCGAGAAGGCCCAUGUC [EteRNA is fun!] (Eterna round: R96, puzzle: Same State 1)”, under setting [1], the “apparent KD of MS2 coat protein” value was 41.8 nM.
As to “GGAAAGAGGUUAGGAUAUGCAUGGCUGGGACAUGAGGAUCACCCAUGUAAUAGAAGAAAUCUACAGUAGAAGGGACAAGGAAGG [AK SSNG2-V2-8] (Eterna round: R96, puzzle: Same State NG 2)”, the “apparent KD of MS2 coat protein” value reads like this: (input ligand: FMN 200 uM) 759 nM; under setting [1], 262 nM; (input ligand: none) 224 nM.
The corresponding values for “GGAAUAUUUACAGGAUAUGAUUUGUAAAUUCGAUCAGAAGGGUAGAUGUCUUACACGACUUGUUACAUGAGGAUCACCCAUGUU [SameState NG1 #9] (Eterna round: R96, puzzle: Same State NG 1)” are 41.6 nM, 48.8 nM and 67.3 nM.
For the sequence “GGACGUCAAUAUGAAUUCCACAUGAGGAUCACCCAUGUUCAUGAGGAUAUGGAUCCUAAUUGGAUCCAGAAGGCAUGGACGUCC [Fiskers NG3ss - 38] (Eterna round: R96, puzzle: Same State NG 3)”, the “apparent KD of MS2 coat protein” value by setting is: (input ligand: FMN 200 uM) 81.9 nM; under setting [1], 163 nM; (input ligand: none) 194 nM.
In the case of “GGAGAACAUGAGGAUCACCCAUGUGGAUGGGCGCUAGGAUAUGCGGGAGGGUGAAGAGAAGCAGAAGGAGUGGAUA [JR_SS1_Sub035] (puzzle: Same State 1)”, the “apparent KD of MS2 coat protein” value under setting [2] amounted to 56.7 nM.
As to “GGAGAAUAACUAGAGGAUAUCCGAGUGGUAACAUGAGGAUCACCCAUGUGAUGAAAGGAACAUGAGGAGAAGGCUAGAAUGAAGG [Mat - Same State 2 - Mod of JL - D85] (puzzle: Same State 2)”, the “apparent KD of MS2 coat protein” value is, setting by setting: under setting [3], 37.3 nM; under setting [2], 34.9 nM; under setting [4], 77.6 nM.
As to “GGAGCCAAGGCAGGAUAUUCAUACUAAUAACAUGAGGAUCACCCAUGUAAGGCCAGAAGGCCUUGGGAGAAGGGCCAUGGCUCG [Xeonanis - 13 mod3] (Eterna round: R96, puzzle: Same State NG 2)”, the “apparent KD of MS2 coat protein” value is, setting by setting: (input ligand: FMN 200 uM) 22 nM; under setting [1], 57.1 nM; (input ligand: none) 86.7 nM.
The corresponding values for “GGAGCCAAGGCAGGAUAUUCAUAUUAAAACAUGAGGAUCACCCAUGUAAAGGCCAGAAGGCCGUGGGAGAAGGGCCAUGGCUCG [Xeonanis - 13 mod15] (Eterna round: R96, puzzle: Same State NG 2)” are 38.5 nM, 51.7 nM and 116 nM.
The corresponding values for “GGAGCCAAGGCAGGAUAUUCAUAUUAAAACAUGAGGAUCACCCAUGUAAAGGCCAGAAGGCCUUUGGAGAAGGGCCAUGGCUCG [Xeonanis - 13 mod14] (Eterna round: R96, puzzle: Same State NG 2)” are 17.7 nM, 15 nM and 24.4 nM.
“GGAGCCAAGGCAGGAUAUUCAUAUUAAAUAACAUGAGGAUCACCCAUGUUGGCCAGAAGGCCAUGGGAGAAGGGCCAUGGCUCG [Xeonanis - 13 mod22] (Eterna round: R96, puzzle: Same State NG 2)”: the “apparent KD of MS2 coat protein” value reads like this: (input ligand: FMN 200 uM) 18.8 nM; under setting [1], 53.1 nM; (input ligand: none) 87.2 nM.
For “GGAGCCAAGGCAGGAUAUUCAUAUUAAUAACACAUGAGGAUCACCCAUGUGGCCAGAAGGCCAUGGGAGAAGGGCCAUGGCUCG [Xeonanis - 13 mod10] (Eterna round: R96, puzzle: Same State NG 2)”, the “apparent KD of MS2 coat protein” value reads like this: (input ligand: FMN 200 uM) 86.3 nM; under setting [1], 195 nM; (input ligand: none) 469 nM.
The corresponding values for “GGAGCCAAGGCAGGAUAUUCAUAUUAAUUACAUGAGGAUCACCCAUGUUAGGCCAGAAGGCCUUGGGAGAAGGGCCAUGGCUCG [Xeonanis - 13 mod19] (Eterna round: R96, puzzle: Same State NG 2)” are 22.9 nM, 47.2 nM and 60.6 nM.
On to “GGAGCCGGCACCGAGGAUAUUUAUAUUAAAACAUGAGGAUCACCCAUGUAGGCCAGAAGGCCUUGGGAGAAGGCGGAUCGGCUCG [Xeonanis - 5] (puzzle: Same State 2)”, for which the “apparent KD of MS2 coat protein” value runs as follows: under setting [3], 16.4 nM; under setting [2], 75.7 nM; under setting [4], 79.6 nM.
Taken in the same sequence, the figures for “GGAGCCGGCACUGAGGAUAUUCAUAUUUAAACAUGAGGAUCACCCAUGUAGGCCAGAAGGCCUUGGGAGAAGGCAGGUCGGCUCU [salish99_ss2_r3_077] (puzzle: Same State 2)” were 20.8 nM, 247 nM and 434 nM.
On to “GGAGCCGGUACUGAGGAUAUUCAUUUUAAAACAUGAGGAUCACCCAUGUAGGCCAGAAGGCCUUGGGAGAAGGCAGAUCGGCUCC [Biseusra - 6] (puzzle: Same State 2)”, for which the “apparent KD of MS2 coat protein” value reads like this: under setting [3], 19 nM; under setting [2], 180 nM; under setting [4], 281 nM.
Turning to “GGAGCCGGUACUGAGGAUAUUUAUAUUAAAACAUGAGGAUCACCCAUGUAGGCCAGAAGGCCUUGGGAGAAGGCAGAUCGGCUCC [Biseusra - 5] (puzzle: Same State 2)”, the “apparent KD of MS2 coat protein” value by setting is: under setting [3], 15.1 nM; under setting [2], 46.2 nM; under setting [4], 72.8 nM.
Taken in the same sequence, the figures for “GGAGCUGGCACUGAGGAUAUUCAUAUUUAAACAUGAGGAUCACCCAUGUAGGCCAGAAGGCCUUGGGAGAAGGCAGGUCGGCUCG [salish99_ss2_r3_085] (puzzle: Same State 2)” were 24.6 nM, 254 nM and 354 nM.
The corresponding values for “GGAGGAUGAGCGUAGGAUAUAGGAGGAGUGACAUGAGGAUCACCCAUGUAGUAGGAGGGAAAGGGCUAGAAGGACGAGGAAGAGG [JR_SS2_Sub071] (puzzle: Same State 2)” are 56.1 nM, 51.2 nM and 70.2 nM.
“GGAUGAUAGACAGGAUAUUGAAUGUAAAUAGGACAAGAAGGGUCAAUGAUAUAAACGACCAGUUACAUGAGGAUCACCCAUGUU [JR_SSNG1_Sub023] (Eterna round: R96, puzzle: Same State NG 1)”: the “apparent KD of MS2 coat protein” value is 37.1 nM (input ligand: FMN 200 uM), 30.5 nM under setting [1] and 38.9 nM (input ligand: none).
“GGAUGAUUAACAGGAUAUCAUUUGUAAAUUGGUUGAGAAGGGUUAAUGAUUUAAACGACCUGUUACAUGAGGAUCACCCAUGUU [SameState NG1 #1] (Eterna round: R96, puzzle: Same State NG 1)”: under setting [1], the “apparent KD of MS2 coat protein” value amounted to 45.6 nM.
Take “GGCCUGGGUCAAGGAUAUGCUACCGUUUCGGUAGCAGAAGGUGAUCACAUGAGGAUCACCCAUGUUUACGCGAAGACGCGCGCC (Eterna round: R96, puzzle: Same State NG 1)”: the “apparent KD of MS2 coat protein” value reads like this: (input ligand: FMN 200 uM) 526 nM; under setting [1], 59.3 nM; (input ligand: none) 405 nM.
Taken in the same sequence, the figures for “GGCUGCGUUGUGAAGGAUAUCCGCGUCUGGACAUGAGGAUCACCCAUGUAUGCUUGGAUCGUGCCGGAGAAGGUCACGAAUGAUU [JR_SS002_Sub1213] (Eterna round: R96, puzzle: Same State 2)” were 14 nM, 29.4 nM and 55.2 nM.
Turning to “GGGUAGGAAUUACAGGAUAUAUAGAAGUUGACAUGAGGAUCACCCAUGUAUGGGUUGGGAGGAGGAUAGAAGGGUAUGAGAGGUG [JR_SS2_Sub032] (puzzle: Same State 2)”, the “apparent KD of MS2 coat protein” value was 125 nM under setting [3], 123 nM under setting [2] and 113 nM under setting [4].
The corresponding values for “GGGUAGGAGCUACAGGAUAUAUAGAAGUUGACAUGAGGAUCACCCAUGUAAGGGUACGGAGGCGGAUAGAAGGGUAUGGGAGGUG [JR_SS2_Sub033] (puzzle: Same State 2)” are 55.5 nM, 54.2 nM and 64.9 nM.
Taken in the same sequence, the figures for “GGUAAACAUGAGGAUCACCCAUGUAAUAUAAUGGGAGGAUAUCUGAAUUAAUUAAAUUAAGGAGAAGGCCUAAUGG [Mat - Same State 1 - Mod of Eli - D49] (puzzle: Same State 1)” were 248 nM, 245 nM and 321 nM.
Regarding “GGUAAGAAUUAAGGAUAUCGAGUACAUAUGUUUAACAUGAGGAUCACCCAUGUGGGUUGCGGUAUCGAGAAGGUAAAUUAUAAG [Mat - same State NG 2 - JL mod - D63] (Eterna round: R96, puzzle: Same State NG 2)”, the “apparent KD of MS2 coat protein” value reads like this: (input ligand: FMN 200 uM) 43.3 nM; under setting [1], 29.7 nM; (input ligand: none) 50.8 nM.
